This note sets out measurements from patent publication US20240294611A1.

The target of test [1] is SARS-CoV-2 B.1.1.7 (variant Alpha) spike on pseudovirus (SARS-CoV-2) (UniProt P0DTC2). The experiment in a line: cell-based or functional assay.
Test [2] addresses SARS-CoV-2 D614G spike without stabilizing modifications (on cells or pseudovirus) (SARS-CoV-2) (UniProt P0DTC2). Nature of the test: cell-based or functional assay.

Take “isotype control antibody with irrelevant binding”: the Pseudovirus IC50 in test [1] and in test [2] was more than 5 µM throughout.
